Test results reported in US20230312739A1 (BIOTHEUS, published 2023).

How the values were obtained:
[1] = target: T1, human CD73 on the cell surface (tumor cells endogenously expressing human CD73; CHOS-human CD73) (human, UniProt P21589 27-549); experiment: full-field cell scanning analyzer (Celigo), percent fluorescent cells, SKLU1 cells endogenously expressing human CD73
T1 construct: The endogenous CD73 of the human tumor lines (MDA-MB-231, Calu6, SK-ME-S, H2030, SKLU1, BT549, A375, HCC44) is treated as the same protein
T1 sequence: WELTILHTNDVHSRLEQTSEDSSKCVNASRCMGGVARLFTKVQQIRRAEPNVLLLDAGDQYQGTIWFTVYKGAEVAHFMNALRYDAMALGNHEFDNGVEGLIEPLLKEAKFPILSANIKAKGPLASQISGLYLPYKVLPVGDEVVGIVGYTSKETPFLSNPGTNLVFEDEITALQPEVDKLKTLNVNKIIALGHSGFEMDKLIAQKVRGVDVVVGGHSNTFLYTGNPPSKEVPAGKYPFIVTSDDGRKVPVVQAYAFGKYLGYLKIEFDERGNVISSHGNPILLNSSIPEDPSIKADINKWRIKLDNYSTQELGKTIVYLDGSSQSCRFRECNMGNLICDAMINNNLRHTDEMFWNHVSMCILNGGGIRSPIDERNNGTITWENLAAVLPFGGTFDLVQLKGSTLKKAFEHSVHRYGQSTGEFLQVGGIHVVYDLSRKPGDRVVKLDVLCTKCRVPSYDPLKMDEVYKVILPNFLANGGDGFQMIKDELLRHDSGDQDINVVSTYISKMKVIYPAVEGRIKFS
Protocol: (§1) Experimental method: 10,000 cells were plated on a flat-bottom 96-well plate with 100 μL DMEM+10% FBS/well, cultured overnight so that the cells adhered to the well, and the supernatant was discarded on the next day. Serial 3-fold dilutions of antibody for 8 points were performed by diluting ⅓ of the total volume (100 μL) in 200 μL DMEM. 100 μL of the diluted antibody was added to each well of the cell plate (the supernatants of fused clones or subclones were used for screening), 100 μL of DMEM was added to the corresponding negative control well, and incubation was performed at room temperature for 1 hour. After the supernatant was discarded, 100 μL of secondary antibody (DyLight488 goat anti-mouse IgG (Abcam, Cat. No. ab97015)) was added to each well at a concentration of 5 μg/mL (diluted in DMEM), and incubation was performed for 0.5 hours at room temperature. After staining, the supernatant was discarded, followed by washing once with PBS+2% FBS, then 100 μL of PBS+2% FBS was added to each well, and then reading was performed on analyzer. A full-field cell scanning analyzer (Nexcelom Company, model Celigo® Image Cytometer) was used to measure the reading of the experimental plate. […] The binding effect of the anti-CD73 antibody to the CD73-expressing cell line was determined according to the percentage. […]

[2] = target: T1, human CD73 on the cell surface (tumor …); experiment: full-field cell scanning analyzer (Celigo), percent fluorescent cells, BT549 cells endogenously expressing human CD73
Protocol: as §1

[3] = target: T2, CD73 on cynomolgus macaques CD3+CD8+ T cells (cynomolgus macaques, UniProt A0A2K5V5U7 27-549); experiment: flow cytometry on cynomolgus macaque PBMC, CD3+CD8+ T cells, donor 1132F
T2 construct: whole, on cells; also called cynomolgus macaques T cells; cynomolgus macaques PBMC
T2 sequence: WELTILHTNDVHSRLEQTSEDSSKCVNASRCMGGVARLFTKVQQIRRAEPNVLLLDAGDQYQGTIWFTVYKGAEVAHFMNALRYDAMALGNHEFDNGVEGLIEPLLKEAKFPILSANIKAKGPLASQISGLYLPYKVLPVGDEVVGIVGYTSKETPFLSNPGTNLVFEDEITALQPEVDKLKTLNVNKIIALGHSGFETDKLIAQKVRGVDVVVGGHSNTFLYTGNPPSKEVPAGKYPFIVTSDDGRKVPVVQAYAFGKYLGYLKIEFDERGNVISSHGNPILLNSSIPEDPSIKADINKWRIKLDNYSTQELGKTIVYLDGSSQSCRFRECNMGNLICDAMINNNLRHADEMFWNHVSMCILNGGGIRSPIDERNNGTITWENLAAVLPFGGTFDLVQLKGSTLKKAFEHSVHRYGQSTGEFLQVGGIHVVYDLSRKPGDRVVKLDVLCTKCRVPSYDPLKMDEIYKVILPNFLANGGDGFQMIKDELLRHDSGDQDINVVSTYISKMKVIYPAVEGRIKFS
Protocol: Monkey blood samples from two donors (1132F and 1300M) were obtained from Medicilon. Peripheral blood mononuclear cells (PBMCs) were isolated using a Ficoll density gradient centrifugation system. The PBMCs were incubated with the antibody to be tested, then the antibodies bound on the cells were stained with fluorochrome-labeled secondary antibodies (DyLight488 goat anti-mouse IgG, Abcam Cat. No. ab97015; DyLight488 goat anti-human IgG, Abcam Cat. No. ab97003), and the fluorochrome-labeled antibodies against CD3+ and CD8+ were used to recognize T cells. Together with the unstained control samples and the fluorescence compensation control samples, all the samples were run on a flow cytometer to detect the binding of the antibodies to cynomolgus macaques T cells.

[4] = target: T1, human CD73 on the cell surface (tumor …); experiment: full-field cell scanning analyzer (Celigo), percent fluorescent cells, A375 cells endogenously expressing human CD73
Protocol: as §1

[5] = target: T1, human CD73 on the cell surface (tumor …); experiment: full-field cell scanning analyzer (Celigo), percent fluorescent cells, SK-ME-S cells endogenously expressing human CD73
Protocol: as §1

[6] = target: T1, human CD73 on the cell surface (tumor …); experiment: full-field cell scanning analyzer (Celigo), percent fluorescent cells, H2030 cells endogenously expressing human CD73
Protocol: as §1

B1: murine antibody 13D12 (antibody, V domains shown)
VH: DVKLQESGPAMVKPSQSLSLTCTVTGYSITSGYDWHWIRLFPGNKLEWMGYISYSGYTDYSPSLKSRISITHDTSKNHFFLKLHSVTTEDTATYYCTRGDHSYAMDYWGQGTSVTVS
VL: DIVMTQSHKFMSTSVGDRVSITCKASQAVGTAVAWYQQKPGQSPKLLIYWASSRHTGVPDRFTGSRSGTDFTLTISSVQSEDLADYFCQQYSSYPLTFGGGTNLEIK
notes: Mouse monoclonal antibody purified from hybridoma supernatant; also called mouse monoclonal antibody 13D12
EC50 [1]: 2.46 µg/mL | EC50 [2]: 1.78 µg/mL | MFI FC (fold change of mean fluorescence intensity) [3]: 5 fold | EC50 [4]: 2.43 µg/mL | EC50 [5]: 1.72 µg/mL | EC50 [6]: 0.46 µg/mL
